The target in the assay is CSN5 WT, soluble MPN domain construct of Example 2 (Homo sapiens). Put plainly: ITC.
CSN5 WT, soluble MPN domain construct of Example 2 (Homo sapiens), sequence (O35864 1-257 limits assumed): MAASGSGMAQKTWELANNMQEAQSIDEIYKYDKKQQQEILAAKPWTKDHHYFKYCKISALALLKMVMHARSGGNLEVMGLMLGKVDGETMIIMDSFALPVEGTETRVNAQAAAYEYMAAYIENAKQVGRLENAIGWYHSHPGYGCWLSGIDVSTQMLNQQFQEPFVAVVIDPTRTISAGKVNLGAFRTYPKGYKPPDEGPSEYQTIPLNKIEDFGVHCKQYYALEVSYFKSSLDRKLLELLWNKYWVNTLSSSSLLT

Consider “CSN6, soluble MPN domain construct of Example 2 (from UniProt Q7L5N1 31-211)”, for which the Kd – broadly, the constant that tells how readily two partners part at equilibrium – is 1000 to 5000 nM.

The record behind these values is US20160083712A1.
